Biological target: Aspergillus terreus LOVF Polyketide Synthase

B1: LovD G7 mutant (protein)
chain: MGSIIDAAAAAGPVVLMETAFRKAVESRQIPGAVIMARDASGNLNYTRCFGARTVRRDENNQLPPLQVDTPCRLASATKLLTTIMVLQCMERGLVDLDETVDRLLPDLSAMPVLEGFDDAGNARLRERRGKITLRHLLTHTSGLSYVFLHPLLREYMAQGYLQSAEKFGIQSRLAPPAVNDPGAEWIYGTNLDWAGKLVERATGLDLEQYLQENICAPLGITDMTFKLQQRPDMLARRADQTHRNSADGRLRYDDSVYFRADGEECFGGQGVFSSPGSYMKVLHSLLKRDGLLLQPQTVDLMFQPALEPRLEEQMNQHMDASPHINYGGPMPMFLRRSFGLGGIIALEDLDGENWRRKGSLTFGGGPNIVWQIDPKAGLCTLAFFQLEPWNDPVCRDLTRTFEHAIYAQYQQG
activities towards LovF (kinetic assay for LVA synthesis with LovF as acyl donor): The G7 mutant exhibited a 27-fold decrease in activities towards LovF compared to the G0 parent

Source: US8981056
